The results in this text go back to the DeepSol protein solubility set.

A short description of this data set: soluble on expression in E. coli; label from the status in PepcDB or PDB records.
Turning to “MQKFDTRTFQGLILTLQDYWARQGCTIVQPLDMEVGAGTSHPMTCLRELGPEPMAAAYVQPSRRPTDGRYGENPNRLQHYYQFQVVIKPSPDNIQELYLGSLKELGMDPTIHDIRFVEDNWENPTLGAWGLGWEVWLNGMEVTQFTYFQQVGGLECKPVTGEITYGLERLAMYIQGVDSVYDLVWSDGPLGKTTYGDVFHQNEVEQSTYNFEYADVDFLFTCFEQYEKEAQQLLALENPLPLPAYERILKAAHSFNLLDARKAISVTERQRYILRIRTLTKAVAEAYYASREALGFPMCNKDKLEHHHHHH”, the “soluble on expression in E. coli” value is on record as “not soluble”.
For “MKEESEESSMDHHSYTTEEVAKRLKVSKLTVYDLIKKGELPSYRVGRQMRIDAADLDQYIKQMKTGKVQVNPVKNDGSSILNTCIISGQELTLDMLAKRIENRLPSSNVLRAYQGSLTSLVKMYQGEGSIVSLHLFDGETGTYNIPYVKRILVGQPCLMINLLSRNVGFYVQKGNPKKIKTWADISGSTIKFVNREKGSGIRVLVDEQLRILKLNKADISGYEWEESNHLGVATQVANGKADVGVGSEKFSQIVNVDFIPIMKEQYDLVILKNKENEELIEVVKDILQSEEFHNELNAIGGYDITKTGQIVYEIK”, the “soluble on expression in E. coli” value is listed as “not soluble”.
With “MSLDKPVIKISTENVDLIYRVGDNGRLYQSYLGKRLNHATDIAHLPQGSEAYLTHGMEDYFEPAIHIVHNDGNPSTLLKYVSHTRNQVSPGVDEVVITMQDDKYPVTVKLHYVAYQKENLIKTFTEISHREKKPVQLHKYASSMLHLNRANYFLTEFSGDWASEAHVKEQPLEFGKKTIDTKLGARANMFCSPFFQLALDGKSEENQGEVLVGTLGWTGNFSFVFEVDNKNELRVISGINPYASEYSLKPNEIFRTPDFYFTYSFKGKGQASRNFHDWARKYQVKDGNQTRMTLLNNWEATYFDFDEAKLVKLMDDAVELGVDMFLLDDGWFANKYPRSGDHQGLGDWDETADKLPHGIGYLTEAAKKKGIKFGIWIEPEMVNPKSELYEKHKDWVIHLPNRDEYYFRNQLVLDLSNPKVQDYVFGVVDNLMTKYPDIAFFKWDCNSPITNIYSVYLKDKQSHLYIDYVRGLYNVLERVKAKYPDLPMMLCSGGGGRSDYEALSYFTEFWPSDNTDPIERLFIQWGFSQVFPAKTMCAHVTTWNKNSSVKFRTDVAMMCKLGFDIKLADMSKDDETYCRTAVQNYNRLKPVVLEGDMYRLVSPYGSNHTSTMYVGKDKDKAVVFAFDIHPRYAEKILPVRLQGLDADKMYRVKEINLMPGANSSLSGNGEVFSGEFLMNVGLNLFTTQQLNSRVIEVVAEGHHHHHH”, the “soluble on expression in E. coli” value is given as “soluble”.
Consider “DEEPMHYGNIMYDRRVIRGNTYALQTGPLLGRPDSLELQRQREARKRALARKQAQEQLRPQTPEPVEGRKHVDVQTELYLEEIADRIIEVDMECQTDAFLDRPPTPLFIPAKTGKDVATQILEGELFDFDLEVKPVLEVLVGKTIEQSLLEVMEEEELANLRASQREYEELRNSERAEVQRLEEQERRHREEKERRKKQQWEIMHKHNETSQKIAARAFAQRYLADLLPSVFGSLRDSGYFYDPIERDIEIGFLPWLMNEVEKTMEYSMVGRTVLDMLIREVVEKRLCMYE”, for which the “soluble on expression in E. coli” value is on record as “not soluble”.
The entry for “MGSDKIHHHHHHMETLISGKNLKAYYVLDLWGSKKVVKAVDNVSLDILPNEIYGIAGESGCGKSTLLKALLALLDPPLRLMDGELLYNIEGRPTNVTLLKSETIRKLRWSFISYIPQGSMHVLNPVKRVRDTFIEILSSHVKKQTKEFLDLAVQHLKDLGLPERVLNMFPHQLSGGMRQRVTIALATVLKPRVIFADEPTTALDVVAQRAVMQLIRKIQNDLKNTVVLVTHDMGVHAQITTRMAIMYAGKIVEEGPTLEIFKNPLHPYTRYLIQSLPAIGDKKLRSGIPGSPPSLVAPPPGCRFHPRCPHASQRCREEEPLLKEIKPGHKVACFLMEG” is “not soluble”.
The entry for “FDAIAGSISDAVVTIDADSEVVYANDEAVELTGYDRKELVGDDFAKVIPEHLRSAHFEGLDRYLRTGNRNVDWDYLELPLVTAAGDQLTVAVSFGDFERNGQWFCTGVLRDIS” is “not soluble”; for “MPILQPKLMKQLMKFAIFGNTYQPKKSLHALRLFELLKKQGAEICMCREFYQFLTADLKMEVPVDALLEGNDFTADMVISIGGDGTFLKAARRVGRKQIPILGINTGRLGFLADVSPEEMEVTFEEIQAGRYSVEERSVLQLICNDRNLQESPYALNEIAVLKRDSSSMISIRTAINGAYLNTYQADGLVIATPTGSTAYSLSVGGPIIVPHSNTIAITPVAPHSLNVRPIVIRDDWEITLDVESRSHNFLVAIDGSSETCKETTQLTIRRADYSIKVVKRFNHIFFDTLRSKMMWGADGRRLEHHHHHH” it is “soluble”.
“MNHTSDTALLIVNLGTPEAPTAAAVRRYLGEFLSDRRVVSIPPLFWKPLLHMVILPIRGPRSASKYAKVWLQEGSPLSVYTRRIAEGLTQHLPDWRVAWAMRYGAPALTKALDALQAQQVRRIVILPLYPQYSTTTTASVQDVVEAWCKRTPQVQVECIQDYAEDPAWVAAVAASIRRHWQAHGRSEKLMFSFHGLPQRVANNGDPYPQRCQV”: the “soluble on expression in E. coli” value is “not soluble”.
On to “MGSSHHHHHHSSGLVPRGSHMVHAFPHGTTATPTAIAVPPSLRLPVIEAAFPRQLHPYWPKLQETTRTWLLEKRLMPADKVEEYADGLCYTDLMAGYYLGAPDEVLQAIADYSAWFFVWDDRHDRDIVHGRAGAWRRLRGLLHTALDSPGDHLHHEDTLVAGFADSVRRLYAFLPATWNARFARHFHTVIEAYDREFHNRTRGIVPGVEEYLELRRLTFAHWIWTDLLEPSSGCELPDAVRKHPAYRRAALLSQEFAAWYNDLCSLPKEIAGDEVHNLGISLITHHSLTLEEAIGEVRRRVEECITEFLAVERDALRFADELADGTVRGKELSGAVRANVGNMRNWFSSVYWFHHESGRYMVDSWDDRSTPPYVNNEAAGEK”, for which the “soluble on expression in E. coli” value is reported as “soluble”.
For the sequence “MIEQPSPKVYDELLSIWEEAVRSTHHFLTEADIQFYKPLIRHEYLAAVRLYIIREDSGTIAAFMGLSNDCIEMLFVRPNAHGHGYGSRLVEFAIRKKRIYKVDVNEQNAAALGFYLHMGFETTGRDALDATGKPFPILHLQIPPIRLRKATLEDIDLLRTLFTQSVQNTCSTDYNRLQIQAWTGRGTLQRWHELFQSDLYFLLAEDSRKSQVAGFTSVNSKGYLHSMFVHPDYQRQGIASRLLLKAEEYVRIRQGVSVYSEVSITARPFFEKHGYSIEKEQTVSVGDIEMTNFLMYKRI”, the “soluble on expression in E. coli” value is on record as “not soluble”.
The entry for “MGSSHHHHHHSSENLYFQGHMLANNNKRSKLSTVPSSRPIRVGFVGLTSGKSWVAKTHFLAIQQLSSQFQIVALYNPTLKSSLQTIEQLQLKHATGFDSLESFAQYKDIDMIVVSVKVPEHYEVVKNILEHSSQNLNLRYLYVEWALAASVQQAEELYSISQQRANLQTIICLQGRKSPYIVRAKELISEGCIGDINSIEISGNGGWYGYERPMRSPEYLYDIESGVNLISNSFGHTIDVLQYITGSYFQKINAMISNNIPTQFLLDENGKRTKETISKTCPDHLLFQGILENGKVPVSCSFKGGTPVKKLTKNLVIDIHGTKGDLKIEGDAGFVEISNLVLYFYGIKNGNGSSNGTDNNGAAAIKDKEKVTKSPSPSTGTSEEEQTMEVFHLRNYNSVVGNILRIYESIADYHFLGKPESKSSRGPDDLFASTKFDKQGFRFEGFPTFKDAIILHRLIDAVFRSDKEEKTLDVSKIMI” is “soluble”; for “MTKKKAHKPGSATIALNKRARHEYFIEEEFEAGLALQGWEVKSLRAGKANISDSYVLLRDGEAFLFGANITPMAVASTHVVCDPTRTRKLLLNQRELDSLYGRVNREGYTVVALSLYWKNAWCKVKIGVAKGKKQHDKRSDIKEREWQVDKARIMKNAHR” it is “soluble”; for “MNLDTPLADGLERAKRFEQGLQQVVLGQERPIRLLTLAVFARGHALLEGGVGVGKTTLLRAVARGIGGDYERIEGTIDLMPNDLVYYTYLDEQGRPGVAPGPLLKHGEQLSIFFFNEINRARPQVHSLLLRVMAERSVSAFNREYRFPYLQVFADRNRVEKEETFELPAAARDRFMLEIAIEPPADPAHIDQILFDPRFYDPDRLVASAPADTLSFRELNGIAEALQGGIHVSARLRSYVQDLWRATRRPEDFGIALHEADSGDMIEAGSSPRGMSYLVRLARVQAWLSGRDRVEPEDVQYVFAPAVGHRIFLKPVYEYRRAELIPELVGKLIRRIAAPLEHHHHHH” it is “not soluble”.
